Data on 2 molecules can be found in article PMC8746653, “Biochemical and Structural Analysis of a Glucose-Tolerant β-Glucosidase from the Hemicellulose-Degrading Thermoanaerobacterium saccharolyticum” (Molecules, 2022).

Data set [1] concerns the target T1, TsaBgl (Thermoanaerobacterium saccharolyticum, UniProt I3VXG7).
T1 construct: gene Tsac_2208
The data set can be described thus: X-ray crystal structure, […] Å. Conditions: Tris from buffer bound at active site, contacts Glu163 and Glu351; crystallised in 0.1 M Tris-HCl pH 7.0. The format is binding.

For data set [2], the target named is T1, TsaBgl. As to the kind of experiment: pNPG hydrolysis, pNP release at […] nm, inhibitor titration. The format is biochemical. To be noted: read-out: concentration that reduced the enzyme activity by half.
Substrate in the data set “purified protein”: O=[N+]([O-])c1ccc(O[C@@H]2O[C@H](CO)[C@@H](O)[C@H](O)[C@H]2O)cc1
As to the kind of experiment: purified protein. To be noted: 100 mM sodium phosphate pH 6.0, 55 °C, 0-10 mM pNPG.

On to `NC(CO)(CO)CO` [Tris], for which, at TsaBgl [1], the “X-ray crystal structure, 1.70 Å” value is on record as “one Tris molecule was bound to the active site”. The IC50 on TsaBgl [2] was roughly 10 mM.

B1: TsaBgl (Thermoanaerobacterium saccharolyticum JW/SL-YS485) (protein)
chain: MLDFSKDFLFGVATASYQVEGAYNEDGRTMSIWDTFSRQDGKVYKSHNGDVACDHYHLYKDDVKMMKDLGIEAYRFSIAWPRIFPAKGQYNPKGMDFYKRLTDELLKNDIKPFATIYHWDLPQWADDLGGWLNREIVEWYGEYAEKLFSELGGYIKNWITLNEPWCSSFLSYFIGEHAPGHKDLGEALLVSHNLLLSHGKAVEIFRGLNLDDSKIGITLNLNEVFPASDSDDDKVAAQIADGFQNRWFLDPLFKGKYPQDMVEYFGKYAKVDFINDEDLKLISQKLDFLGVNYYTRAVVQKGNDGLLDAVQIDPGNERTEMGWEIYPESLYNILMRLKREYTYDMPLYITENGAAFNDVVEDDGRVHDEKRVEFLKQHFKEAKRFLNDGGNLKGYFVWSLMDNFEWAHGYSKRFGIVYVDYETEKRILKDSALWYKDLISTRTI
In the case of B1, in the data set “purified protein”, the Km (commonly the substrate concentration at which the rate is half of its maximum) came out at 360 ± 20 µM; the kcat (commonly the number of substrate molecules converted per active site and unit of time at saturation) was determined as 18.6 s⁻¹; the kcat/Km (usually the second-order rate constant that governs catalysis at low substrate concentration) came to 51000 M⁻¹ s⁻¹.
